# In patent US20210139605A1 (AGENCY FOR SCIENCE TECHNOLOGY AND RESEARCH, published 2021):
# Where a chain is given by its changes, count along the chain named.
# B1: PFF3 Fab (Fab, V domains shown)
# VH: QVQLVQSGGGLVQPGGSLRLSCSASGFTFSSYAIHWVRQAPGKGLEYVSAISSNGGSTYYADSVKGRFTISRDNSKNTLYLQMNSLRAEDTAVYYCARVYGYGLHYYGMDVWGQGTTVTVSS
# VL: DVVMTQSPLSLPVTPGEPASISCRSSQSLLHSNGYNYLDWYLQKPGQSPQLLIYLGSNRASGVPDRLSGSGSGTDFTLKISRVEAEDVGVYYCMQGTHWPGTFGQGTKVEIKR
# notes: Printed entries run through CL and CH1 (Fab chains); Label F3 tied to PFF3 by inference
# B2: PFF2 Fab (Fab, V domains shown)
# VH: QMQLVQSGGGVVQPGRSLRLSCAASGFSFKNYGMHWVRQAPGKGLEWVAFISYDGTNKYYADSVKGRFTISRDNSKNTLYLQMNSLRAEDTAVYYCAKHYGDYYYYYGMDVWGQGTTVTVSS
# VL: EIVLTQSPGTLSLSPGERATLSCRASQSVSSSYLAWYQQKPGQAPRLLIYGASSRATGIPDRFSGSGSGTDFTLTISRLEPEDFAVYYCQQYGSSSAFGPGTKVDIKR
# notes: Printed entries run through CL and CH1 (Fab chains); Label F2 tied to PFF2 by inference
# B3: PFA4 Fab (Fab, V domains shown)
# VH: EVQLVQSGGGVVQPGRSLRLSCAASGFTFSSYAMHWVRQAPGKGLEWVAVISYDGSNKYYADSVKGRFTISRDNSKNTLYLQMNSLRAEDTAVYYCARSRGYYGMDVWGQGTTVTVSS
# VL: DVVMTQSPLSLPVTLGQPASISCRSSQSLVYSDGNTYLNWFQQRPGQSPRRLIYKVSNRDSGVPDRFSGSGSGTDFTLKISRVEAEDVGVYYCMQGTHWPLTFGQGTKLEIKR
# notes: Printed entries run through CL and CH1 (Fab chains); Label A4 tied to PFA4 by inference
# B4: PFE5 Fab (Fab, V domains shown)
# VH: B3 VH
# VL: DIQMTQSPSSLSASVGDRVTITCRASQGISSWLAWYQQKPGKAPKLLIYAASSLQSGVPSRFSGSGSGTDFTLTISSLQPEDFATYYCQQANSFPPTFGPGTKVDIKR
# notes: Printed entries run through CL and CH1 (Fab chains); Label E5 tied to PFE5 by inference
# B5: PFD1 Fab (Fab, V domains shown)
# VH: B3 VH with A33G, S75A, T78S, Y103S, M105Y, V107N, T113L
# VL: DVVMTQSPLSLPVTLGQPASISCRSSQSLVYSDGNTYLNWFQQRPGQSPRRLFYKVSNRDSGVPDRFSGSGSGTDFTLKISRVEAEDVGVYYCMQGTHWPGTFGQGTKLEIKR
# notes: Printed entries run through CL and CH1 (Fab chains); Label D1 tied to PFD1 by inference
# B6: PFB1 Fab (Fab, V domains shown)
# VH: QVQLQESGGGLVQPGGSLRLSCAASGFTFSSFAMNWVRQAPGKGLEWVSTIGGSGDSTFYADPVKGRFTVSRDNSKNTLYLQMNSLRAEDTAVYYCAQAYGSGGHYFFAYWGQGTLVTVSS
# VL: DVVMTQSPLSLPVTPGEPASISCRSSQSLLHSNGNTYLDWYLQKPGQSPQVLIYSGSNRASGVPDRFSGSGSGTDFTLKISRVEAEDVGVYYCMQGTHWPPTFGQGTKVEIKR
# notes: Printed entries run through CL and CH1 (Fab chains); Label B1 tied to PFB1 by inference
# B7: PFC3 Fab (Fab, V domains shown)
# VH: QVQLVQSGGGLVQPGGSLRLSCAASGFTFSSYAMSWVRQAPGKGLEWVSGINWNGGSTGYADSVKGRFTISRDNSKNTLYLQMNSLRAEDTAVYYCAKGLVPAASMDVWGQGTTVTVSS
# VL: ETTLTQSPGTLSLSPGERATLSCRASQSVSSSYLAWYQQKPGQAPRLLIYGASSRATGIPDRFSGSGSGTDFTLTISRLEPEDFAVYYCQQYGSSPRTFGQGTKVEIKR
# notes: Printed entries run through CL and CH1 (Fab chains); Label C3 tied to PFC3 by inference
# B8: PFB2 Fab (Fab, V domains shown)
# VH: EVQLVQSGAEVKKPGASVKVSCKASGYTFTSYGISWVRQAPGEGLEWMGWISAYNGNTNYAQKLQGRVTMTTDTSTSTAYMELRSLRSDDTAVYYCARDWGSSWSDYWGQGTLVTVSS
# VL: ETTLTQSPATLSLSPGERATLSCRASQSVRNNLAWYQHKPGQAPRLLIYYASTRATGIPDRFSGSGSGTDFTLTISRLEPEDFALYYCQHYGSSRTFGQGTKVEIKR
# notes: Printed entries run through CL and CH1 (Fab chains); Label B2 tied to PFB2 by inference
# B9: PFE2 Fab (Fab, V domains shown)
# VH: EVQLVQSGGGVVQPGRSLRLSCAASGFTFSSYAMHWVRQAPGKGLEWVAVISYDESNKYYADSVKGRFTISRDNSKNTLYLQMNSLRAEDTAVYYCAREPSGSWSYLYYYYYGMDVWGQGTTVTVSS
# VL: DVVMTQSPLSLPVTPGEPASISCRSSQSLLRSDGYNFVDWYLQKAGQSPQLLIHLGSDRASGVPDRFSGSGSGTDFTLRISRVEAEDVGVYYCMQALQTPRTFGQGTKVEIKR
# notes: Printed entries run through CL and CH1 (Fab chains); Label E2 tied to PFE2 by inference
# B10: PFB3 Fab (Fab, V domains shown)
# VH: QVQLQESGGGLVQPGGSLRLSCAASGFTFSSYAMSWVRQAPGKGLEWVSAISGSGGSTYYADSVKGRFTISRDNSKNTVYLQMNSLRAEDTAVYYCARTYYDFWSGRVGAFDIWGQGTTVTVSS
# VL: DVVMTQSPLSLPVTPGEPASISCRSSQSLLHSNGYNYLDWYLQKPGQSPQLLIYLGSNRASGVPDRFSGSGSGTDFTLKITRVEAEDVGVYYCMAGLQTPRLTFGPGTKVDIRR
# notes: Printed entries run through CL and CH1 (Fab chains); Label B3 tied to PFB3 by inference
# B11: PFA2 Fab (Fab, V domains shown)
# VH: QVQLQQSGPGLVKPSQTLSLTCAISGESVSSAAAAWNWIRQSPSRGLEWLGRTYYRSKWYSEYAVSVKSRITINGDTSKNQVSLHLNAVTPEDTAIYYCVRGSIFDVWGQGTMVTVSS
# VL: EIVLTQSPLSLPVTPGEPASISCRSSQSLLHSDGNKYLDWYLQKPGQSPQLLIYLGSNRASGVPERFSGSGSGTDFTLKISRVEAEDVGVYYCMLGTHWPPMYIFGQGTKLEIKR
# notes: Printed entries run through CL and CH1 (Fab chains); Label A2 tied to PFA2 by inference
# B12: PFB5 Fab (Fab, V domains shown)
# VH: EVQLVQSGAEVKKPGSSVKVSCKASGGTFSSYAISWVRQAPGQGLEWMGGIIPIFGTANYAQKFQGRVTITADESTSTAYMELSSLRSEDTAVYYCARGRGSGYPDTWFWFDPWGQGTLVTVSS
# VL: not shown
# notes: Printed entries run through CL and CH1 (Fab chains); Label B5 tied to PFB5 by inference
# B13: PFG2 Fab (Fab, V domains shown)
# VH: EVQLVQSGGGLVQPGGSLRLSCAASGFTFSSYAMSWVRQAPGKGLEWVSSISSSSSYIYYADSVKGRFTISRDNAKNSLYLQMNSLRAEDTAVYYCARDGSAWSRPYWGQGTLVTVSS
# VL: EIVLTQSPATLSLSPGERATLSCRASQSVSSYLAWYQQKPGQAPRLLIYDASNRATGIPARFSGSGSGTDFTLTISSLEPEDFAVYYCQQRSNWPLTFGGGTKVEIKR
# notes: Printed entries run through CL and CH1 (Fab chains); Label G2 tied to PFG2 by inference
# B14: clone A3 Fab (P1A3, from the phage display Fab library) (Fab, V domains shown)
# VH: EVQLVQSGTEVKKPGASVRVSCKSSGYTFTSYYIHWVRQAPGQGLEWMAIINPGNGDTNYAQRFQGRVTMTRDTSTSTVYMELRSLRSDDTAVYFCAREIASYSGSYYDYWGQGTLVTVSS
# VL: QAVVTQEPSLSVSPGGTVTLTCGLSSGSVSTGHYASWYQQTPGQAPRTLFYNTNTRSSGVPDRFSGSIVGNKAALTITGAQADDESDYYCVLYVGDGIWVFGGGTKLTVLG
# B15: PFG4 Fab (Fab, V domains shown)
# VH: QVQLQQSGAEVKKPGSSVKVSCKASGGTFSSYAISWVRQAPGQGLEWMGGIIPIFGTANYAQKFQGRVTITADKSTSTAYMELSSLRSEDTAVYYCARGADWNSDYWGQGTLVTVSS
# VL: QSVLTQPPSVSKALRQTATLTCTGNNNNVGFAGAAWFLQHQGHPPKLLAYRNNDRPSGISERFSASRSGNTASLTITGLQPEDEADYYCSAWDSSLKVQVFGGGTKLTVLG
# notes: Printed entries run through CL and CH1 (Fab chains); Label G4 tied to PFG4 by inference
# B16: clone C5 Fab (P1C5, from the phage display Fab library) (Fab, V domains shown)
# VH: QVQLQESGPGLVKPSETLSLTCTVSGGSISSSSYYWGWIRQPPGKGLEWIGSIYYSGSTYYNPSLKSRVTISVDTSKNQFSLKLSSVTAADTAVYYCARYAPDSSGYLVAFDIWGQGTMVTVSS
# VL: QTVVTQEPSFSVSPGGTVTLTCGLSSGSVSTGYYPSWYQQTPGQAPRTLIYSTNSRSSGVPDRFSGSILGNKAALTITGAQADDESDYYCVLYMGSGISVFGGGTKLTVLG
# B17: clone F1 Fab (P1F1, from the phage display Fab library) (Fab, V domains shown)
# VH: QVQLVESGPGLVKPSGTLSLTCAVSGGSISSSNWWSWVRQPPGKGLEWIGEIYHSGSTNYNPSLKSRVTISVDTSKNQFSLKLSSVTAADTAVYYCARMGANSGGYLYGMDVWGQGTTVTVSS
# VL: B16 VL with G32S, S55T, S99W
# B18: clone E4 Fab (P1E4, from the phage display Fab library) (Fab, V domains shown)
# VH: QVQLQQWGAGLLKPSETLSLTCAVYGGSFSGYYWSWIRQPPGKGLEWIGEINHSGSTNYNPSLKSRVTISVDTSKNQFSLKLSSVTTADTAVYYCARMGINSGGYLYGMDVWGQGTTVTVSS
# VL: B16 VL with G32S, T41I, S52T, S55I, S65G, D83E, V91M, S99W
# B19: PFD3 Fab (Fab, V domains shown)
# VH: EVQLVQSGAEVKKPGESLKISCKGSGYSFTSYWIGWVRQMPGKGLEWMGIIYPGDSDTRYSPSFQGQVTISADKSISTAYLQWSSLKASDTAMYYCARLGYGVPLPEYFDLWGRGTLVTVSS
# VL: B16 VL with T2A, T5I, G23A, S25T, G32S, A45P, S55L, V91E, L107V
# notes: Printed entries run through CL and CH1 (Fab chains); Label D3 tied to PFD3 by inference
# B20: PFD2 Fab (Fab, V domains shown)
# VH: QVQLQQWGAGLLKPSETLSLTCAVYGGSFSGYYWSWIRQPPGKGLEWIGEINHSGSTNYNPSLKSRVTISVDTSKNQFSLKLSSVTAADTAVYYCARGLPYYYFDYWGQGTLVTVSS
# VL: QSVVTQPPSVSGAPGQRVTISCTGRSANIGGFDVQWYRQLPGTAPQLLIYDNSNRPSGVPDRFSGSKSGTSATLAISGLQTGDEADYYCGTWDSYLNIWVFGGGTKLTVLS
# notes: Printed entries run through CL and CH1 (Fab chains); Label D2 tied to PFD2 by inference
# B21: PFA5 Fab (Fab, V domains shown)
# VH: QVQLVQSGAEVKKPGASVKVSCKASGYTFTSYAMHWVRQAPGQRLEWMGWINAGNGNTKYSQKFQGRVTITRDTSASTAYMELSSLRSEDTAVYYCARGGYLVGYWGQGTLVTVSS
# VL: not shown
# notes: Printed entries run through CL and CH1 (Fab chains); Label A5 tied to PFA5 by inference
# B22: PFG1 Fab (Fab, V domains shown)
# VH: EVQLVQSGGGVVQPGRSLRLSCAASGFTFSSYGMHWVRQAPGKGLEWVAVIWYDGSNKYYADSVKGRFTISRDNSKNTLYLQMNSLRAEDTAVYYCATMTTEDYWGQGTLVTVSS
# VL: QAVLTQPSSLSASPGASASLTCTLRSGINVGTYRIYWYQQKPGSPPQYLLRYKSDSDKQQGSGVPSRFSGSKDASANAGILLISGLQSEDEADYYCMIWHSSAWVFGGGTKLTVLG
# notes: Printed entries run through CL and CH1 (Fab chains); Label G1 tied to PFG1 by inference
# B23: PFA1 Fab (Fab, V domains shown)
# VH: EVQLVQSGGGVVQPGRSLRLSCAASGFTFSSYGMHWVRQAPGKGLEWVAVISYDGSNKYYADSVKGRFTISRDNSKNTLFLQMNSLRAEDTAVYYCARDLFAVVGYYYYYGMDVWGQGTTVTVSS
# VL: EIVLTQSPFSLPVTPGEPASISCRSSQSLLHSNGFNYLDWYLQKPGQSPQLLIYLGSNRASGVPDRFSGSGSGTDFTLKISRVEAEDVGVYYCMQGLQTPYTFGQGTKLEIKR
# notes: Entries are labelled light/heavy chain VD but as printed run through CL and CH1 (Fab chains); Label A1 tied to PFA1 by inference
# B24: PFD4 Fab (Fab, V domains shown)
# VH: QVQLVQSGGGLVQPGGSLRLSCSASGFTFSSYAMHWVRQAPGKGLEYVSAISSNGGSTYYADSVKGRFTISRDNSKNTLYLQMSSLRAEDTAVYYCARSRGYYGMDVWGQGTTVTVSS
# VL: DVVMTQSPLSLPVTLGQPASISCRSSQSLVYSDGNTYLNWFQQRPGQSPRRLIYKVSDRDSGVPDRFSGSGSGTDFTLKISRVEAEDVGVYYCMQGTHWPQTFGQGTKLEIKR
# notes: Printed entries run through CL and CH1 (Fab chains); Label D4 tied to PFD4 by inference
# Legend:
# [1] = target: T1, human HER-2 protein (soluble / recombinant, used in SPR) (human, UniProt P04626 23-652); experiment: SPR, immobilized HER2 protein
# T1 construct: also called immobilized HER2 protein; recombinant HER-2
# [2] = target: T1, human HER-2 protein (soluble / …); experiment: SPR, human HER2 immobilised, Fab flown, 1:1 Langmuir model
# Experimental: Rate constants of association, dissociation (kₐ, kd) and the equilibrium dissociation constants (KD) were determined for anti-HER2 Fab molecules. Human HER2 protein (50 μg/mL) was immobilised on the SPR sensor chip and was exposed to five different concentrations of each Fab in 2- or 3-fold dilutions over the flow cells. 1:1 Langmuir model was used to derive the constants.
Binder,koff [1] [s⁻¹],further results
B1,0.00324,–
B2,0.0047,–
B3,0.0196,Kd [2]: 20.5 nM; koff [2]: 0.042 s⁻¹; kon [2]: 2.03e+06 M⁻¹ s⁻¹
B4,0.00152,–
B5,0.0714,–
B6,0.00565,–
B7,0.0528,Kd [2]: 15.3 nM; koff [2]: 0.063 s⁻¹; kon [2]: 4.11e+06 M⁻¹ s⁻¹
B8,0.000177,–
B9,0.0187,–
B10,0.0102,–
B11,0.00218,–
B12,0.017,Kd [2]: 112 nM; koff [2]: 0.02 s⁻¹; kon [2]: 176000 M⁻¹ s⁻¹
B13,0.000499,–
B14,0.00416,–
B15,0.00063,–
B16,0.00448,–
B17,0.00502,–
B18,0.00181,–
B19,0.0272,–
B20,0.00486,–
B21,0.00326,–
B22,0.000324,–
B23,0.00415,–
B24,0.0342,–
